Results on two molecules are retold here after patent US20220396632A1 (VERSEAU THERAPEUTICS, published 2022).

Experiment [1] addresses T1, Sulfotyrosine CCR2b biotin peptide (human).
T1 construct: also called CCR2b peptide
T1 peptide: TTFFD[sY]D[sY]GAPSHGGK(Biotin)
The experiment is described as follows: ELISA, plate-bound peptide. (In general: An ELISA detects its analyte on a solid surface through an enzyme-linked reagent.)

For experiment [2], the target named is T2, Biotin Y46,48,51(SO3) PSGL-1(42-62) peptide (human, sulfotyrosine at Y46, Y48 and Y51; C-terminal Lys-biotin).
T2 construct: also called fully sulfated N-terminal PSGL-1 peptide
T2 peptide: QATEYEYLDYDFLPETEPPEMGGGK
The experiment is described as follows: ELISA, plate-bound peptide.

The target in experiment [3] is T3, Recombinant human PSGL-1(ECD)-hFc1 (R&D Systems, Cat. 3345-PS) (human, UniProt Q14242 42-305).
T3 construct: Bought; Gln42-Val295 counted on AAC50061; also called PSGL-1-Fc; PSGL-1-hFc1 chimera; not shown: human IgG1 Fc, Pro100-Lys330
T3 sequence: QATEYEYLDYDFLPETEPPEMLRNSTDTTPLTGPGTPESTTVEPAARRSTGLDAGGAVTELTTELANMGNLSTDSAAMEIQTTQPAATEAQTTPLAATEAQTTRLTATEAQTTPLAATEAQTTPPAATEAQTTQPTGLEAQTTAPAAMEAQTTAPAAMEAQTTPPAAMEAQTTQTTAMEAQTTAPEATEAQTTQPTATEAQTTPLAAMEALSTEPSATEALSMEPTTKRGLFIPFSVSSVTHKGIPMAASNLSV
Description: Octet tandem; competitor 20G13. As to the method:
(§1) Antibody binning was performed by ForteBio Octet® using a tandem assay format, with anti-human IgG biosensor-immobilized PSGL-1(ECD)-hFc1 protein, binding of competitor mAb followed by analyte antibody. As competition controls, the same antibody was competed against itself, and mAb competition was performed bidirectionally.
(§2) Antibody binning by tandem octet was performed by immobilizing 10 ug/mL PSGL-1(ECD)-hFc1 (R&D Systems, Cat. #3345-PS) in PBS, pH 7.4, onto anti-human IgG capture biosensors (ForteBio, Cat. #18-5060), binding of 100 nM competitor antibody for 300 sec., followed by binding of 100 nM of analyte mAb for 300 s in kinetic buffer (0.1% BSA in PBS containing 0.02% tween 20 and 0.05% sodium azide, pH 7.4). Synagis (Johnson et al. (1997) J. Infect. Dis. 176:1215-1224) served as a negative control mAb for competition. An Fc quench step (0.25 mg/mL human IgG Fcl; BioXcell, Cat. #BE0096, in kinetic buffer) was included when human mAbs were tested to prevent high background from the antibodies binding to the anti-human IgG biosensor. Biosensor regeneration buffer consisted of 10 mM glycine, pH 2.0.
For orientation: BLI is a label-free optical method that tracks binding on a fibre tip over time.

The target of experiment [4] is T3, Recombinant human PSGL-1(ECD)-hFc1 (R&D …). Description: Octet tandem; competitor 19N05. The protocol:
as §1, §2

The next experiment deals with T4, Human PSGL-1(ECD)-HIS (human, UniProt Q14242 42-319).
T4 construct: also called Human PSGL-1-His
T4 sequence: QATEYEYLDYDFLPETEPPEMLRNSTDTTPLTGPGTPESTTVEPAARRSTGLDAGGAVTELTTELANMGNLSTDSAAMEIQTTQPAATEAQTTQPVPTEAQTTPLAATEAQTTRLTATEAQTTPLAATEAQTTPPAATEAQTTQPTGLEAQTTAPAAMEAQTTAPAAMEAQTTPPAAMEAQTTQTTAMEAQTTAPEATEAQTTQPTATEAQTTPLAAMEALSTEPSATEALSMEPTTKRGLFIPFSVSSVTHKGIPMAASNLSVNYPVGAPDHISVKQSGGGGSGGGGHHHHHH
The experiment is described as follows: ELISA, plate-immobilized protein.

For experiment [5], the target named is T5, Biotin PSGL-1(290-310) peptide (human, N-terminal acetyl; C-terminal Lys-biotin).
T5 peptide: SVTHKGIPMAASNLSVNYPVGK
Description: ELISA; against WT PSGL-1(ECD)-hFc1. The protocol: (§3) A typical ELISA experiment involved binding of a single concentration or serially diluted mAb in assay buffer (3% BSA in PBS containing 0.05% Tween®20, pH 7.4) onto BSA blocked high binding microtiter plate half-wells (Corning Cat. #3690), which contained PSGL-1 protein or streptavidin-immobilized biotin peptide. After incubation for 45 min. at 37° C., the plate was washed 3 times with wash buffer (PBS containing 0.05% Tween®20, pH 7.4), and an appropriate HRP-conjugated secondary antibody added (25 ul/well) (HRP goat anti-mouse or anti-human IgG). After 45 min. incubation at 37° C., the plate was washed and antibody bound to plate-immobilized target was determined at A450 nm using HRP substrate (3,3′5,5′-tetramethylbenzidine (TMB)). For each antibody, duplicate values were averaged and assay background subtracted.

Experiment [6] has as its target PSGL-1(ECD)-hFc1 M119A protein (Sino Biological) (human). The experiment is described as follows: ELISA; against WT PSGL-1(ECD)-hFc1. The protocol:
as §3

Experiment [7] has as its target PSGL-1(ECD)-hFc1 I121A protein (Sino Biological) (human). The experiment is described as follows: ELISA; against WT PSGL-1(ECD)-hFc1. As to the method:
as §3

For experiment [8], the target named is PSGL-1(ECD)-hFc1 S116A protein (Sino Biological) (human). The experiment is described as follows: ELISA; against WT PSGL-1(ECD)-hFc1. The protocol: as §3
Sequence of PSGL-1(ECD)-hFc1 S116A protein (Sino Biological) (human) (chain, as listed by the source S116A S116A): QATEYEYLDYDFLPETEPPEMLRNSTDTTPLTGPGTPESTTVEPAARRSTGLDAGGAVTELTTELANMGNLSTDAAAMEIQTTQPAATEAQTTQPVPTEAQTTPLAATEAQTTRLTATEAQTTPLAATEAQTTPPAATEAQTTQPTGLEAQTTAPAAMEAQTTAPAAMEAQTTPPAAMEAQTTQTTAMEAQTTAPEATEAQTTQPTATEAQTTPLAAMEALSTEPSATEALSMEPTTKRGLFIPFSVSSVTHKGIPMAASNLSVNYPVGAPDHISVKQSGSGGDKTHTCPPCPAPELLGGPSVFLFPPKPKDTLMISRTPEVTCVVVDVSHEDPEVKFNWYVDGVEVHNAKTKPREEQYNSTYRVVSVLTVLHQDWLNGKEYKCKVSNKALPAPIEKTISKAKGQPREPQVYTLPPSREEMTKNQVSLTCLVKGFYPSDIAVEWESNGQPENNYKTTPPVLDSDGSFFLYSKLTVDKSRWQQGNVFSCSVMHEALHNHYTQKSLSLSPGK
Experiment [9] has as its target T5, Biotin PSGL-1(290-310) peptide. Description: ELISA, plate-bound peptide or protein. As to the method:
as §3

Experiment [10] has as its target PSGL-1(ECD)-hFc1 M119A protein (Sino Biological) (human). The experiment is described as follows: ELISA, plate-bound peptide or protein. The protocol: as §3
The target in experiment [11] is PSGL-1(ECD)-hFc1 I121A protein (Sino Biological) (human). The experiment is described as follows: ELISA, plate-bound peptide or protein. The protocol:
as §3

Experiment [12] concerns the target PSGL-1(ECD)-hFc1 S116A protein (Sino Biological) (human). Description: ELISA, plate-bound peptide or protein. As to the method: as §3
Experiment [13] has as its target T3, Recombinant human PSGL-1(ECD)-hFc1 (R&D …). The experiment is described as follows: Octet tandem; competitor 15A7. As to the method:
as §1, §2

The target is the same in experiment [14]. The experiment is described as follows: Octet tandem; competitor 16E17. As to the method: as §1, §2
For experiment [15] the target is unchanged. Description: Octet tandem; competitor 19L04. As to the method:
as §1, §2

Experiment [16] has the same target. The experiment is described as follows: Octet tandem; competitor 18K07. As to the method: as §1, §2
Experiment [17] shares this target. The experiment is described as follows: Octet tandem; competitor 18F17. The protocol:
as §1, §2

Experiment [18] addresses T6, Biotin PSGL-1(105-125) peptide (human, N-terminal acetyl; C-terminal Lys-biotin).
T6 peptide: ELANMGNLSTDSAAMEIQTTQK
Description: ELISA, streptavidin-immobilized biotin peptide. As to the method:
as §3

The next experiment addresses T7, 42-80 (C-terminal Lys-biotin).
T7 construct: also called Biotin PSGL-1(42-80) peptide
T7 peptide: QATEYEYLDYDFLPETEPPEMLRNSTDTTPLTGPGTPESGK
Description: ELISA, streptavidin-immobilized biotin peptide. The protocol:
as §3

Experiment [19] concerns the target T8, Biotin PSGL-1(42-62) peptide, unmodified (human, C-terminal Lys-biotin).
T8 construct: Residues 42-62 followed by GGGK-biotin; also called WT; wild-type
T8 peptide: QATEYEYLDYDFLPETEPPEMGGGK
The experiment is described as follows: ELISA, streptavidin-immobilized biotin peptide. As to the method:
as §3

Experiment [20] has as its target T3, Recombinant human PSGL-1(ECD)-hFc1 (R&D …). The experiment is described as follows: Octet tandem; competitor 19J23. The protocol:
as §1, §2

Non-standard residues stand in square brackets, D forms with d. No end group written: not given here. *: point of attachment. Biotin = O=C1N[C@H]2[C@H](CS[C@H]2CCCCC(=O)*)N1; sY = N[C@@H](Cc1ccc(OS(=O)(=O)O)cc1)C(=O)O Bounds are passed on as bounds.

Sequence of PSGL-1(ECD)-hFc1 M119A protein (Sino Biological) (human) (chain, as listed by the source M119A M119A): as the sequence (chain, as listed by the source S116A S116A) above, with A75S, M78A counted along it
Sequence of PSGL-1(ECD)-hFc1 I121A protein (Sino Biological) (human) (chain, as listed by the source I121A I121A): as the sequence (chain, as listed by the source S116A S116A) above, with A75S, I80A counted along it

B1: 06G08 (antibody, IgG4, V domains shown)
VH: EVKLLESGGGVVQPGGSLRLSCAVSGFTFSNYAMHWVRQAPGKGLEWVAVISFDGSNKYTADSVQGRFTISRDNSKNTLYLQMNSLTPEDTAVYYCASRIIRTVAGGDYWGQGTLVTVSS
VL: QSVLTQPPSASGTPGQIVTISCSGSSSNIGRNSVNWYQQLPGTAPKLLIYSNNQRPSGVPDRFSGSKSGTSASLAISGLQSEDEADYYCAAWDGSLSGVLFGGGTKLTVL
A word on the EC50: it is the midpoint of the concentration-response curve. Read a low EC50 as a more potent agent. Take B1: the binding result in [1] is “no binding (tested: 20 nM)”. In experiment [2], this molecule yielded an EC50 of 0.71 nM.

B2: 18F17 (antibody, V domains shown)
VH: QVTLKESGPGILQPSQTLSLTCSFSGFSLSTFGMGVGWIRQPSGKGLEWLAHIWWDDDKYYNPALKSRLTISKDTSKNQVFLKIANVDTADTATYYCAIYYDYGVGFDYWGQGTTLTVSS
VL: DIVMTQAAPSVPVTPGESVSISCRSSKSLLHSNGYTFLYWFLQRPGQSPQLLIYRMSNLASGVPDRFSGSGSGTAFTLRISRVEAEDVGVYYCMQHLEYPFTFGTGTKLEIK
notes: Non-functional anti-PSGL-1 mAb (Verseau); only variable domains given
By EC50 (read off the curve) is commonly meant the midpoint of the concentration-response curve. A lower EC50 (read off the curve) goes with higher potency in that assay. For B2, the “% binding of analyte mAb” value in [3] stood at 22%; in experiment [4], 84.2%; in [13], 61.9%; in experiment [14], 124%; in [15], 68.7%; in [16] it was 90.7%. The figures for the “% binding of analyte mAb” value in experiment [17] and in [20] were 28.2% and 26.9%, respectively. Also, in the experiment with Human PSGL-1(ECD)-HIS, the “EC50 (read off the curve)” value is ~700 pM. Besides, the EC50/EC50WTprot was < 1 fold in experiment [5], 0.74 fold in experiment [6], 0.68 fold in experiment [7] and 0.67 fold in [8]. Further, the EC50 in experiment [9] is < 0.5 nM; in experiment [10] it was 0.6 nM; in [11], 0.55 nM; in experiment [12], 0.54 nM. In addition, the binding result (in [18]; with 42-80; in [19]) was “no binding (tested: 10 nM)” throughout.
